Experimental data from article PMC11651300 (Journal of the American Society for Mass Spectrometry, 2024).

B1: Cholera toxin B (natural protein)
chain: TPQNITDLCAEYHNTQIYTLNDKIFSYTESLAGKREMAIITFKNGAIFQVEVPGSQHIDSQKKAIERMKDTLRIAYLTEAKVEKLCVWNNKTPHAIAAISMAN

What was measured:
[1] = target: Pyruvate kinase from rabbit (rabbit) (UniProt P11974); experiment: native MS
[2] = target: the molecule itself; experiment: native MS

Molecule | stoichiometry N [1] | stoichiometry N [2]
Pyruvate kinase from rabbit (from UniProt P11974 1-531) (enzyme) | 4 | –
B1 | – | 5
